{"source": "patent US20250043302A1", "about": "“MUTATED HYDROXYPHENYLPYRUVATE DIOXYGENASE POLYPEPTIDE, AND CODING GENE AND USE THEREOF” (BEIJING DABEINONG BIOTECHNOLOGY CO., LTD., priority 2021, published 2025)", "molecules": {"B1": {"name": "AsHPPDm-A111T-F372A-02: nucleotide sequence encoding Avena sativa HPPD with A111T+F372A; vector DBN11781 (nucleic acid)", "DNA": "ATGCCACCTACTCCAGCTACAGCTACTGGTGCTGCTGCTGCTGCCGTTACTCCTGAGCACGCTGCCAGGTCATTCCCCAGGGTGGTTCGCGTGAACCCCAGATCTGATAGGTTCCCAGTTCTGAGCTTCCACCATGTTGAGCTGTGGTGCGCTGATGCTGCTTCTGCTGCTGGCAGGTTCTCTTTCGCTCTTGGTGCTCCACTCGCTGCTAGATCTGATCTGTCTACAGGAAATAGCGCTCATGCCTCACTCCTGCTTCGCTCAGGTGCTTTGGCCTTCCTCTTCACCGCTCCATATGCTCCCCCACCTCAGGAGGCTGCTACTGCTGCTACTACAGCCTCCATTCCAAGCTTCTCAGCTGATGCCGCTAGAACCTTCGCTGCTGCTCATGGACTTGCCGTGAGGTCTGTTGGTGTTCGCGTGGCTGATGCTGCTGAGGCTTTCAGAGTTTCCGTTGCCGGCGGAGCTAGGCCAGCTTTCGCTCCTGCTGATTTGGGACATGGTTTCGGCCTGGCTGAGGTTGAGCTTTACGGTGACGTGGTTCTCCGCTTCGTGTCTTACCCAGATGAGACTGACCTGCCTTTCCTTCCCGGCTTCGAGAGAGTTTCCTCTCCTGGTGCCGTGGATTACGGCCTGACAAGGTTCGACCACGTGGTTGGAAACGTTCCCGAGATGGCTCCAGTGATCGATTACATGAAGGGCTTCCTTGGATTCCATGAGTTCGCCGAGTTCACTGCTGAGGACGTGGGAACCACTGAGTCCGGTTTGAACTCTGTGGTTCTCGCCAACAATTCTGAGGCTGTTTTGCTCCCTCTGAATGAGCCTGTGCATGGAACCAAGAGGAGAAGCCAGATTCAAACTTACCTGGAGTACCACGGTGGCCCTGGAGTTCAGCATATCGCCCTTGCTTCTAATGATGTGTTGCGCACACTCAGAGAGATGCGCGCCAGAACCCCCATGGGAGGTTTCGAGTTCATGGCCCCACCACAGGCTAAGTACTACGAGGGCGTTAGAAGGATTGCTGGAGACGTGTTGAGCGAGGAGCAGATCAAGGAGTGCCAAGAGCTGGGTGTTCTTGTGGATAGGGATGACCAGGGCGTTCTGCTTCAAATTGCCACTAAGCCAGTGGGCGACCGCCCTACATTCTTCCTTGAGATGATTCAAAGAATCGGCTGCATGGAGAAGGATGAGGTTGGACAGGAGTACCAAAAGGGCGGATGCGGTGGCTTCGGAAAGGGTAACTTCAGCGAGTTGTTCAAGTCAATCGAGGACTACGAGAAGAGCCTCGAGGTGAAGCAGTCAGTGGTTGCCCAAAAGTCCTGA", "modifications": "AsHPPDm-A111T-F372A-02 Nucleotide Sequence", "notes": "vector DBN11781"}}, "key": {"[1]": {"tested_on": "Arabidopsis thaliana T1 plants", "experiment": "Isoxaflutole tolerance of transgenic Arabidopsis thaliana T1 plants (spray, bleached leaf area grade, damage score);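 as to Scores: Weighted damage index from 0 to 100 where higher means more damage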", "format": "in vivo", "details": "Table 11; for Classification and statistics of the grade of pesticide damage Grade 0: number of plants at grade 0; for Classification and statistics of the grade of pesticide damage Grade 1: number of plants at grade 1; for Classification and statistics of the grade of pesticide damage Grade 2: number of plants at grade 2; for Classification and statistics of the grade of pesticide damage Grade 3: number of plants at grade 3; for Scores: pesticide damage score", "text": "T1 transformants were initially selected from the untransformed seeds using a glufosinate selection scheme. The Arabidopsis thaliana T1 plants (AsHPPD-02) into which the AsHPPD-02 nucleotide sequence was introduced, the Arabidopsis thaliana T1 plants (AsHPPDm-F372A-02) into which the AsHPPDm-F372A-02 nucleotide sequence was introduced, the Arabidopsis thaliana T1 plants (AsHPPDm-F383W-02) into which the AsHPPDm-F383W-02 nucleotide sequence was introduced, the Arabidopsis thaliana T1 plants (AsHPPDm-F372A-F383W-02) into which the AsHPPDm-F372A-F383W-02 nucleotide sequence was introduced, the Arabidopsis thaliana T1 plants (DBN11726N) into which the control recombinant expression vector DBN11726N was introduced, and the wild-type Arabidopsis thaliana plants (CK) (18 days after sowing) were sprayed respectively with topramezone at three concentrations (100 g ai/ha (four-fold field concentration, 4×), 200 g ai/ha (eight-fold field concentration, 8×), and 0 g ai/ha (water, 0×)), isoxaflutole at three concentrations (140 g ai/ha (two-fold field concentration, 2×), 280 g ai/ha (four-fold field concentration, 4×), and 0 g ai/ha (water, 0×)), and mesotrione at three concentrations (210 g ai/ha (two-fold field concentration, […]), 420 g ai/ha (four-fold field concentration, 4×), and 0 g ai/ha (water, 0×)), to determine the tolerance of Arabidopsis thaliana to the herbicides. The degree of damage caused by the herbicide was measured for each plant according to the proportion of bleached leaf area (the proportion of bleached leaf area=bleached leaf area/total leaf area×100%) 7 days after spraying (7 DAT): the case where there is basically no bleached phenotype is defined as grade 0, the case where the proportion of bleached leaf area is less than 50% is defined as grade 1, the case where the proportion of bleached leaf area is more than 50% is defined as grade 2, and the case where the proportion of bleached leaf area is 100% grade is defined as grade 3.\nAccording to the method as described above in point 6 of Example 1, the aforementioned Arabidopsis thaliana T1 plants and wild-type Arabidopsis thaliana plants (CK) (18 days after sowing) were sprayed respectively with topramezone at three concentrations (25 g ai/ha (one-fold field concentration, 1×). 100 g ai/ha (four-fold field concentration, 4×), and 0 g ai/ha (water, 0×)), isoxaflutole at three concentrations (35 g ai/ha (half-fold field concentration, 0.5×). 70 g ai/ha (one-fold field concentration, 1×), and 0 g ai/ha (water, 0×)), and mesotrione at three concentrations (52.5 g ai/ha (half-fold field concentration, 0.5×), 105 g ai/ha (one-fold field concentration, 1×), and 0 g ai/ha (water, 0×)) to detect the tolerance of Arabidopsis thaliana to the herbicides.\nAccording to the method as described above in point 6 of Example 1, the aforementioned Arabidopsis thaliana T1 plants and wild-type Arabidopsis thaliana plants (CK) (18 days after sowing) were sprayed with topramezone at three different concentrations (i.e., 100 g ai/ha (four-fold field concentration, 4×), 200 g ai/ha (eight-fold field concentration, 8×) and 0 g ai/ha (water, 0×)), isoxaflutole at three different concentrations (i.e., 140 g ai/ha (two-fold field concentration, 2×), 280 g ai/ha (four-fold field concentration, 4×) and 0 g ai/ha (water, 0×)), and mesotrione at three different concentrations (i.e., 210 g ai/ha (two-fold field concentration, 2×), 420 g ai/ha (four-fold field concentration, 4×) and 0 g ai/ha (water, 0×)) respectively to detect the herbicide tolerance of Arabidopsis thaliana. […]"}, "[2]": {"tested_on": "Arabidopsis thaliana T1 plants", "experiment": "Mesotrione tolerance of transgenic Arabidopsis thaliana T1 plants (spray, bleached leaf area grade, damage score)", "format": "in vivo", "parameters": "Scores: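 damage score 0-100 computed as Σ(N×S)/(T×M)×100 over grades 0-3 with higher meaning more damage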", "details": "Table 12; for Classification and statistics of the grade of pesticide damage Grade 0: number of plants at grade 0; for Classification and statistics of the grade of pesticide damage Grade 1: number of plants at grade 1; for Classification and statistics of the grade of pesticide damage Grade 2: number of plants at grade 2; for Classification and statistics of the grade of pesticide damage Grade 3: number of plants at grade 3; for Scores: pesticide damage score", "summary_of_the_method": "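Read-out: per-plant damage grade 0–3 from proportion of bleached leaf area at 7 DAT (1 <50%, 2 >50%, 3 100%). Plants were T1 transformants, glufosinate-selected, plus wild-type CK, sprayed 18 days post-sowing. Rates: topramezone 25–200, isoxaflutole 35–280, mesotrione 52.5–420 g ai/ha.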"}}}
{"molecule": "B1", "values": [{"measurement": "Resistance evaluation", "setting": "[1]; isoxaflutole 140 g ai/ha (2×)", "result": "Moderately"}, {"measurement": "Classification and statistics of the grade of pesticide damage Grade 0", "setting": "[1]; isoxaflutole 140 g ai/ha (2×)", "result": 5}, {"measurement": "Classification and statistics of the grade of pesticide damage Grade 1", "setting": "[1]; isoxaflutole 140 g ai/ha (2×)", "result": 8}, {"measurement": "Classification and statistics of the grade of pesticide damage Grade 2", "setting": "[1]; isoxaflutole 140 g ai/ha (2×)", "result": 1}, {"measurement": "Classification and statistics of the grade of pesticide damage Grade 3", "setting": "[1]; isoxaflutole 140 g ai/ha (2×)", "result": 2}, {"measurement": "Scores", "setting": "[1]; isoxaflutole 140 g ai/ha (2×)", "result": 33}, {"measurement": "Resistance evaluation", "setting": "[1]; isoxaflutole 280 g ai/ha (4×)", "result": "Poorly resistant"}, {"measurement": "Classification and statistics of the grade of pesticide damage Grade 0", "setting": "[1]; isoxaflutole 280 g ai/ha (4×)", "result": 0}, {"measurement": "Classification and statistics of the grade of pesticide damage Grade 1", "setting": "[1]; isoxaflutole 280 g ai/ha (4×)", "result": 0}, {"measurement": "Classification and statistics of the grade of pesticide damage Grade 2", "setting": "[1]; isoxaflutole 280 g ai/ha (4×)", "result": 16}, {"measurement": "Classification and statistics of the grade of pesticide damage Grade 3", "setting": "[1]; isoxaflutole 280 g ai/ha (4×)", "result": 0}, {"measurement": "Scores", "setting": "[1]; isoxaflutole 280 g ai/ha (4×)", "result": 67}, {"measurement": "Resistance evaluation", "setting": "[2]; mesotrione 210 g ai/ha (2×)", "result": "Moderately"}, {"measurement": "Classification and statistics of the grade of pesticide damage Grade 0", "setting": "[2]; mesotrione 210 g ai/ha (2×)", "result": 5}, {"measurement": "Classification and statistics of the grade of pesticide damage Grade 1", "setting": "[2]; mesotrione 210 g ai/ha (2×)", "result": 8}, {"measurement": "Classification and statistics of the grade of pesticide damage Grade 2", "setting": "[2]; mesotrione 210 g ai/ha (2×)", "result": 3}, {"measurement": "Classification and statistics of the grade of pesticide damage Grade 3", "setting": "[2]; mesotrione 210 g ai/ha (2×)", "result": 0}, {"measurement": "Scores", "setting": "[2]; mesotrione 210 g ai/ha (2×)", "result": 29}, {"measurement": "Resistance evaluation", "setting": "[2]; mesotrione 420 g ai/ha (4×)", "result": "Poorly resistant"}, {"measurement": "Classification and statistics of the grade of pesticide damage Grade 0", "setting": "[2]; mesotrione 420 g ai/ha (4×)", "result": 0}, {"measurement": "Classification and statistics of the grade of pesticide damage Grade 1", "setting": "[2]; mesotrione 420 g ai/ha (4×)", "result": 8}, {"measurement": "Classification and statistics of the grade of pesticide damage Grade 2", "setting": "[2]; mesotrione 420 g ai/ha (4×)", "result": 7}, {"measurement": "Classification and statistics of the grade of pesticide damage Grade 3", "setting": "[2]; mesotrione 420 g ai/ha (4×)", "result": 1}, {"measurement": "Scores", "setting": "[2]; mesotrione 420 g ai/ha (4×)", "result": 52}]}
